Data on 2 substances can be found in paper PMC2889250.

Assay in all cases: SDS-PAGE
The target of experiment [1] is recombinant NaK channel.
Experiment [2] has as its target recombinant NaK channel. This is another data set of the same source.
Experiment [3] concerns the target semisynthetic NaK channel (residues 19-110).

Where two headings read alike, the source gives them in different places.

For orientation: stoichiometry N means a count of units in the complex or per binding partner. Take “recombinant NaK channel (natural protein)”: the stoichiometry N with recombinant NaK channel [1] and with recombinant NaK channel [2] was 4 throughout.

With “semisynthetic NaK channel (residues 19-110) (natural protein)”, in experiment [3], the stoichiometry N was determined as 4.
